What was measured:
Details in all cases: FMN input: 0 or 200 uM; Eterna round: R93 (includes R88 designs)
[1] = test system: MS2 coat protein; experiment: apparent KD of MS2 coat protein, switch ON state; designed switch direction (-1 OFF switch, 1 ON switch): 1; higher = weaker reporter binding
Method in brief: (§1)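 Apparent KD is reported per design as the median of normalised binding-curve fits across its clusters. The RNA switches were made by on-chip transcription from Illumina sequencing clusters. SNAP-549-labelled MS2 coat protein was then added in twofold steps (0.7 or 1.5 nM to 3 µM; 0.8–1.5 h to 10–20 min per step) in 100 mM Tris-HCl pH 7.5, 80 mM KCl, 4 mM MgCl2, without or with constant ligand.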

[2] = test system: MS2 coat protein; experiment: apparent KD of MS2 coat protein, switch OFF state (with FMN for OFF switches, without FMN for ON switches); designed switch direction (-1 OFF switch, 1 ON switch): 1; higher = weaker reporter binding
Method in brief: as §1

[3] = test system: MS2 coat protein; experiment: apparent KD of MS2 coat protein, switch OFF state (with FMN for OFF switches, without FMN for ON switches); designed switch direction (-1 OFF switch, 1 ON switch): -1; higher = weaker reporter binding
Method in brief: as §1

[4] = test system: MS2 coat protein; experiment: apparent KD of MS2 coat protein, switch ON state; designed switch direction (-1 OFF switch, 1 ON switch): -1; higher = weaker reporter binding
Method in brief: as §1

| Sequence | apparent KD of MS2 coat protein [1] [nM] | apparent KD of MS2 coat protein [2] [nM] | apparent KD of MS2 coat protein [3] [nM] | apparent KD of MS2 coat protein [4] [nM] |
| --- | --- | --- | --- | --- |
| AAAAAAAAAGUAGAGGAUAUCCAAAUGGCUACAUGAGGAUCACCCAUGUGAAGAAAAGCACAUGAGGAGAAGGCUACAAAAAAAAA [Blender bender] | 12.1 | 21.7 | – | – |
| AAAAAAAAAUCACAGGAUAUACGAAAAAAAACAUGAGGAUCACCCAUGUGAAAAAAAAAAAAAAAGUAGAAGGGUGAUCCAAAAAA | 12.6 | 8.77 | – | – |
| AAAAAACAAAGAGAGGAUAUCCUAAAAAAAACAUGAGGAUCACCCAUGUAAAGAAAUUUAAAAUGGGAGAAGGCUCUUUGAAAAA [Same State 2.6d ( Helter Skelter 1)] | 12.4 | 23.2 | – | – |
| AAAAAACAUGAGGAUCACCCAUGUAAAAAAAACACAGGAUAUCCCUUUUUAAAAAAAAAAGGAGAAGGGUGAAAAA [Nob's Hobby 6 - Jieux - Same State 1] | 29.8 | 28 | – | – |
| AAAAAACAUGAGGAUCACCCAUGUAACACUCAUGUAGGAUAUACAAAAAAAAAAAAAAAAGUAGAAGGACAAAAAA [Omei A variation 3] | 143 | 293 | – | – |
| AAAAAACAUGAGGAUCACCCAUGUAAUACAACGUCAGGAUAUUGAUUUUAUUAUGUAUUGCAAGAAGGGACAAAAA [Same State 1.3 (Same State 1 - Omei 2 - one GC added)] | 161 | 144 | – | – |
| AAAAAACAUGAGGAUCACCCAUGUAUAAAAAUGGGAGGAUAUACUAAGACGAAAGUCAUAGUAGAAGGUCUAAAAA [76%, Meechl, 11] | 137 | 241 | – | – |
| AAAAAACAUGAGGAUCACCCAUGUCAAAAGACAUGAGGAUAUGUACAGACUUCGGUCUGUACAGAAGGCAUGAAAA [SS1 - 1011] | 31.6 | 524 | – | – |
| AAAAAACAUGAGGAUCACCCAUGUCAAAAGACGUGAGGAUAUGUACAGACUUCGGUCUGUACAGAAGGCACGUCAA [SS1 - 1043] | 15.9 | 20.4 | – | – |
| AAAAAACAUGAGGAUCACCCAUGUCCAAAAAAAAAAGGAUAUGCAAAAAAAAAAAAAAAAGCAGAAGGUUUAAAAA [Same State 1] | 41.2 | 45.1 | – | – |
| AAAAAACAUGAGGAUCACCCAUGUCCUCGGACGUGAGGAUAUGUACAGACUUCGGUCUGUACAGAAGGCACAAAAA [SS1 - 1034] | 1240 | 333 | – | – |
| AAAAAACAUGAGGAUCACCCAUGUCUUCGGACAUGAGGAUAUGUACAGACUUCGGUCUGUACAGAAGGCAUGAAAA [SS1 - 1013] | 256 | 39.5 | – | – |
| AAAAAACAUGAGGAUCACCCAUGUGAAAAUAUGGGAGGAUAUCAUGGAAAAAAAAAAACAUGAGAAGGCCCAGAAA [SS! 1 MT 11] | 13.7 | 67.1 | – | – |
| AAAAAACAUGAGGAUCACCCAUGUGACAACAUGGGAGGAUAUACGAAGACGAGAGUCGAAGUAGAAGGCCUAAAAG [Garnet 78] | 117 | 65.3 | – | – |
| GAAAAGUGAGGAUAUACUUUGGGAAAAGAAAAGAUGAUGUUACAUGAGGAUCACCCAUGUAGAAGGCACAAAAA [Mat - Exclusion 2 - Mod - D155] | – | – | 38.1 | 25.2 |
| GAAAAGUGAGGAUAUUCGGAUAGGAAAACGAAAACCUAUCCGAAGAAGGCACAUGAGGAUCACCCAUGUAAAAG [Mat - Exaclusion 4 - Eli mod - D36] | – | – | 51.9 | 41.2 |
| GAAAGUGGAGGAUAUACAUGAGGAUCACCCAUGUGUAAAAAUAAAAACACAAAAGAAAGUAGAAGGCCACAAAG [Mat - Exclusion 3 - Mayanna mod - D116] | – | – | 49.2 | 22.9 |
| GAGAGACAUGAGGAUCACCCAUGUGAGGAUAUCGGGAGGAGGAGGAGGAGGAGGAGGACGAGAAGGCACGGAAG [salish99-Ex1-06] | – | – | 35.3 | 21.6 |
| GAGGCUGAAGGAUAUACAAGGGCCUCACCGCCAAGGCGGAAACAUGAGGAUCACCCAUGUAGAAGGUCAAUAAA [Usrisore] | – | – | 103 | 140 |
| GCUGGCCUAGGAUAUACAUGAGGAUCACCCAUGUGAGAGAAAAAAGUGAGAAAGAAAAGUAGAAGGAGGUUAGG [salish99-ex3-115] | – | – | 57.2 | 50.2 |

| Sequence | apparent KD of MS2 coat protein [1] [nM] | apparent KD of MS2 coat protein [2] [nM] | apparent KD of MS2 coat protein [3] [nM] | apparent KD of MS2 coat protein [4] [nM] |
| --- | --- | --- | --- | --- |
| GGAAAACAUGAGGAUCACCCAUGUGAGGAUAUUGAAACAAACAAAACAAACAAACAAACAAGAAGGCACAGGAA [Exclusion one redone] | – | – | 20.1 | 20.7 |
| GGAGGGCAAGGAUAUACAUGAGGAUCACCCAUGUGAGAGAAAAAAGUGAGAAAGAAAAGUAGAAGGUGCUUUCG [salish99-ex3-130] | – | – | 47.8 | 38.8 |
| GGAUGCGUAGGAUAUACAUGAGGAUCACCCAUGUGAGAGAAAAAAGUGAGAAAGAAAAGUAGAAGGACGUGUCG [salish99-ex3-90] | – | – | 85.6 | 34.9 |
| GGAUGGGAAGGAUAUACAUGAGGAUCACCCAUGUGAGAGAAAAAAGUGAGAAAGAAAAGUAGAAGGUCUUGUCG [salish99-ex3-85] | – | – | 99.1 | 82.5 |
| GGUUGCGUAGGAUAUACAUGAGGAUCACCCAUGUGAGAGAAAAAAGUGAGAAAGAAAAGUAGAAGGACGUGACG [salish99-ex3-125] | – | – | 57.9 | 29.7 |
| GGUUGGCGAGGAUAUACAUGAGGAUCACCCAUGUGAGAGAAAAAAGUGAGAACGAAAAGUAGAAGGCGCUGACG [salish99-ex3-25] | – | – | 1340 | 23.5 |
| GGUUGGCGAGGAUAUACAUGAGGAUCACCCAUGUGAGAGAAAAAAGUGAGGAGGAGCAGUAGAAGGCGCUGACG [salish99-ex3-19] | – | – | 147 | 59.3 |
| GUCGUGUGAGGAUAUGGAAAGAAGAAGAAAAGGUAGAAAAACUAGAAGGCACAUGAGGAUCACCCAUGUAAGAA [JR_Exc004_Sub1709] | – | – | 22.3 | 24.1 |
| GUGUACAGAGGAUAUACAUGGGCAUGGAAACAUGCAUCCUCACAUGAGGAUCACCCAUGUAGAAGGCUGUACAC [Ex2: 708] | – | – | 20.9 | 21.6 |
| GUGUACAGAGGAUAUAUAUGAGCUAGGAAACUAGCAACUUCACAUGAGGAUCACCCAUGUAGAAGGCUGUACAC [Ex2: 720] | – | – | 14.3 | 14.1 |
| UAGAACCUAGGAUAUACUUGGAAAAAUAAUGCAAAGAUAUAACAUGAGGAUCACCCAUGUAGAAGGAGGAGUAA [JR_Exc002_Sub020] | – | – | 35.9 | 48.5 |
| UCUUGACAUGAGGAUCACCCAUGUCAGGAUAUAGUAGGACAAAUAAAUAAAAGUAAUACUAGAAGGGAUAUGGG [Amethyst 52] | – | – | 32.6 | 29.8 |
| UGCAGGUGAGGAUAUGCGGGCGAGCUAACAUAAGCAUCGAAGCAGAAGGCACAUGAGGAUCACCCAUGUAGUCC [Ex4_Neo] | – | – | 27.2 | 21 |
| UGCAGGUGAGGAUAUGCGGGCGAUUAAACAUAUAAAUGCAAGCAGAAGGCACAUGAGGAUCACCCAUGUAGUCC [Ex4Try2_Neo] | – | – | 29.6 | 30.8 |
| UGCUAGUCAGGAUAUACGAACAUGUCAAAAGACGUGAAGGGACAUGAGGAUCACCCAUGUAGAAGGGACUAGCA [salish99-Ex2-18] | – | – | 121 | 37.5 |
| UGUUGGCGAGGAUAUACAUGAGGAUCACCCAUGUGAGAGAAAAAAGUGAGAAAGAAAAGUAGAAGGCGCUGACU [salish99-ex3-08] | – | – | 211 | 42.7 |
| UUAAAACAUGAGGAUCACCCAUGUGAGGAUAUGCAAUACUAAUAUUAAAAUAAUUAUAGCAGAAGGCACAUAGU [JR_EXc001_Sub802] | – | – | 60.4 | 28.4 |
| UUUAUGUGAGGAUAUGUACAGAAAAAAAAGGGUGUAACUGUACAGAAGGCACAUGAGGAUCACCCAUGUGCAUU [EX4 382: S S Pseudoknot 7] | – | – | 21.8 | 27.9 |
| UUUCACCUAGGAUAUACAUGAGGAUCACCCAUGUGAGGCGAAGGACGGAGGGAUGGUAGUAGAAGGAGGACAAG [Mod of Gedier] | – | – | 21.6 | 19.5 |
